± gives the standard deviation of the averaged measurements.
Experiment: total protein half-life in vivo (active degradation + dilution); higher = more stable protein
[1] = E. coli NCM3722 delta-clpP delta-lon delta-hslV, growth: N-lim chemostat, doubling time 6 h
[2] = E. coli NCM3722 delta-hslV, growth: N-lim chemostat, doubling time 6 h
[3] = E. coli NCM3722 delta-lon, growth: N-lim chemostat, doubling time 6 h
[4] = E. coli NCM3722 delta-smpB, growth: N-lim chemostat, doubling time 6 h
[5] = wild type E. coli NCM3722, growth: C-lim chemostat, doubling time 3 h
[6] = wild type E. coli NCM3722, growth: C-lim chemostat, doubling time 6 h
[7] = wild type E. coli NCM3722, growth: C-lim chemostat, doubling time 12 h
[8] = wild type E. coli NCM3722, growth: N-lim chemostat, doubling time 6 h
[9] = wild type E. coli NCM3722, growth: N-lim chemostat, doubling time 12 h
[10] = wild type E. coli NCM3722, growth: P-lim chemostat, doubling time 6 h
[11] = wild type E. coli NCM3722, growth: P-lim chemostat, doubling time 12 h
[12] = E. coli NCM3722 delta-clpP, growth: N-lim chemostat, doubling time 6 h

Sequence	total protein half-life in vivo [1] [h]	total protein half-life in vivo [2] [h]	total protein half-life in vivo [3] [h]	total protein half-life in vivo [4] [h]	total protein half-life in vivo [5] [h]	total protein half-life in vivo [6] [h]	total protein half-life in vivo [7] [h]	total protein half-life in vivo [8] [h]	total protein half-life in vivo [9] [h]	total protein half-life in vivo [10] [h]	total protein half-life in vivo [11] [h]	total protein half-life in vivo [12] [h]
MAVEVKYVVIREGEEKMSFTSKKEADAYDKMLDTADLLDTWLTNSPVQMEDEQREALSLWLAEQKDVLSTILKTGKLPSPQVVGAESEEEDASHAA [P0ACY9]	5.68 ± 0.58	0.932 ± 0.076	0.8842 ± 0.0032	2.19 ± 0.32	0.978 ± 0.016	1.17 ± 0.072	1.28	1.08	1.8 ± 0.069	0.976 ± 0.2	2.4	
MDRDQTNSSLFNDDPVLHATWLYYQEGKSQTEVAAIMGVSRVTVVKYLQTARENGLVHINLDVNVFGSIDAALQIRDKFNLQRVIIVPDGEHAGKRDDTKLMRTRLSRAGGMYLNQVIENGDVLGVAWGRTIHQMSKTMTPKSCKNVTVIQMLGSMPSQPDLTIIESSSQIAYKLSGRVASLHVPAVVSSARLAMELQAEPIIRSNFDVLTRCTKAFFVVGNALDENPLIRVGVLNKKEMQTYRDLGAVGVICGRFYDKEGMPVVADVDQRILGISLAQLRQIERKIFLAGGERGYDATLGALLGGYVTDLIVDEGTAEFLLACELPH	7.27 ± 0.75	6.85 ± 0.93	6.37 ± 0.93	5.92 ± 0.29	3.03 ± 0.26	6.27 ± 0.17	11.5 ± 2.3	5.82 ± 0.46	11.9 ± 0.26	5.93 ± 0.12	12 ± 0.53	6.31 ± 0.21
MSMSTSTEVIAHHWAFAIFLIVAIGLCCLMLVGGWFLGGRARARSKNVPFESGIDSVGSARLRLSAKFYLVAMFFVIFDVEALYLFAWSTSIRESGWVGFVEAAIFIFVLLAGLVYLVRIGALDWTPARSRRERMNPETNSIANRQR [P0AFC3]	7.01 ± 0.28	6.15 ± 1.1		6.317 ± 0.023	3.72 ± 0.32		13 ± 0.5	6.22 ± 0.18		6.293 ± 0.024	14.3 ± 2.1	
MFIPSIYLHQQLHYCKTAILNWSRKMALSRQKFTFERLRRFTLPEGKKQTFLWDADVTTLACRATSGAKAFVFQSVYAGKTLRMTIGNINDWKIDDARAEARRLQTLIDTGIDPRIAKAVKIAEAESLQAESRKTKVTFSVAWEDYLQELRTGISAKTKRPYSTRYIADHINLSSRGGESKKRGQGPTSAGPLASLLNLPLSELTPDYIAAWLSTERQNRPTVTAHAYRLLRAFIKWSNYQKKYQGIIPGDLAQDYNVRKMVPVSASKADDCLQKEQLKSWFSAVRSLNNPIASAYLQVLLLTGARREEIASLRWSDVDFKWSSMRIKDKIEGERIIPLTPYVSELLNVLAQSPNSDVNKEGWVFRSNSKSGKIIEPRSAHNRALVLAELPHISLHGLRRSFGTLAEWVEVPTGIVAQIMGHKPSALAEKHYRRRPLDLLRKWHEKIETWILNEAGITIKNNVDMR	4.69 ± 0.43	1.22 ± 0.19	3.07 ± 0.74	0.692 ± 0.011	0.877 ± 0.072	1.51 ± 0.091	3.01 ± 0.11	1.19 ± 0.41	1.97 ± 0.42	0.516	2.03 ± 0.4	1.01 ± 0.058
MQSDKVLNLPAGYFGIVLGTIGMGFAWRYASQVWQVSHWLGDGLVILAMIIWGLLTSAFIARLIRFPHSVLAEVRHPVLSSFVSLFPATTMLVAIGFVPWFRPLAVCLFSFGVVVQLAYAAWQTAGLWRGSHPEEATTPGLYLPTVANNFISAMACGALGYTDAGLVFLGAGVFSWLSLEPVILQRLRSSGELPTALRTSLGIQLAPALVACSAWLSVNGGEGDTLAKMLFGYGLLQLLFMLRLMPWYLSQPFNASFWSFSFGVSALATTGLHLGSGSDNGFFHTLAVPLFIFTNFIIAILLIRTFALLMQGKLLVRTERAVLMKAEDKE				6.2		> 8				6.53		
MTEIQRLLTETIESLNTREKRDNKPRFSISFIRKHPGLFIGMYVAFFATLAVMLQSETLSGSVWLLVVLFILLNGFFFFDVYPRYRYEDIDVLDFRVCYNGEWYNTRFVPAALVEAILNSPRVADVHKEQLQKMIVRKGELSFYDIFTLARAESTS [P0AAS0]					0.508 ± 0.022	0.836		2.01		0.489	0.554	
MAFSQAVSGLNAAATNLDVIGNNIANSATYGFKSGTASFADMFAGSKVGLGVKVAGITQDFTDGTTTNTGRGLDVAISQNGFFRLVDSNGSVFYSRNGQFKLDENRNLVNMQGLQLTGYPATGTPPTIQQGANPTNISIPNTLMAAKTTTTASMQINLNSSDPLPTVTPFSASNADSYNKKGSVTVFDSQGNAHDMSVYFVKTGDNNWQVYTQDSSDPNSIAKTATTLEFNANGTLVDGAMANNIATGAINGAEPATFSLSFLNSMQQNTGANNIVATTQNGYKPGDLVSYQINDDGTVVGNYSNEQTQLLGQIVLANFANNEGLASEGDNVWSATQSSGVALLGTAGTGNFGTLTNGALEASNVDLSKELVNMIVAQRNYQSNAQTIKTQDQILNTLVNLR	3.24 ± 0.9			> 8	1.2 ± 0.066	2.23 ± 0.38	3.51 ± 0.74					7.78
MPTKMRTTRNLLLMATLLGSALFARAAEKEMTIGAIYLDTQGYYAGVRQGVQDAAKDSSVQVQLIETNAQGDISKESTFVDTLVARNVDAIILSAVSENGSSRTVRRASEAGIPVICYNTCINQKGVDKYVSAYLVGDPLEFGKKLGNAAADYFIANKIDQPKIAVINCEAFEVCVQRRKGFEEVLKSRVPGAQIVANQEGTVLDKAISVGEKLIISTPDLNAIMGESGGATLGAVKAVRNQNQAGKIAVFGSDMTTEIAQELENNQVLKAVVDISGKKMGNAVFAQTLKVINKQADGEKVIQVPIDLYTKTEDGKQWLATHVDGLP			> 8	5.48 ± 2.3	3.51 ± 0.069	6.18 ± 0.59	10.2 ± 0.31			> 8	13.19 ± 0.1	
